Where no end group is shown, it is not given here.
B1: Tat-Cys^−-(1–86), full-length HIV1 Tat (Zaire 2 isolate) with its 7 Cys residues replaced by Ser/Ala (natural protein)
chain: MDPVDPNIEPWNHPGSQPKTASNRAHAKKSAYHSQVAFITKGLGISYGRKKRRQRRRPSQGGQTHQDPIPKQPSSQPRGDPTGPKE
B2: human mini-Sirt1 (aa 183-505-(GGGS)2-641-665) (enzyme)
chain: GPYTFVQQHLMIGTDPRTILKDLLPETIPPPELDDMTLWQIVINILSEPPKRKKRKDINTIEDAVKLLQECKKIIVLTGAGVSVSCGIPDFRSRDGIYARLAVDFPDLPDPQAMFDIEYFRKDPRPFFKFAKEIYPGQFQPSLCHKFIALSDKEGKLLRNYTQNIDTLEQVAGIQRIIQCHGSFATASCLICKYKVDCEAVRGDIFNQVVPRCPRCPADEPLAIMKPEIVFFGENLPEQFHRAMKYDKDEVDLLIVIGSSLKVRPVALIPSSIPHEVPQILINREPLPHLHFDVELLGDCDVIINELCHRLGGEYAKLCCNPVGGGSGGGSQYLFLPPNRYIFHGAEVYSDSEDDV
notes: artificial linker, printed as (GGGS)2; human Sirt1, residues 641-665 (ESA region); Modified pET-19b with TEV cleavage site; source: E. coli CodonPlus(DE3), purified (nickel NTA, protease digestion, second nickel NTA, SEC)
B3: ac-Tat-46–54 (peptide)
peptide: SYGRK(Ac)KRRQ
notes: HIV1 Tat, residues 46-54, acetylated at Lys50; also called Tat substrate peptide

Assays:
Sirt2-(43-356) = target: T1, Sirt2-(43-356) (human, UniProt Q8IXJ6 43-356); assay: cell-based or functional assay
T1 sequence (looked up): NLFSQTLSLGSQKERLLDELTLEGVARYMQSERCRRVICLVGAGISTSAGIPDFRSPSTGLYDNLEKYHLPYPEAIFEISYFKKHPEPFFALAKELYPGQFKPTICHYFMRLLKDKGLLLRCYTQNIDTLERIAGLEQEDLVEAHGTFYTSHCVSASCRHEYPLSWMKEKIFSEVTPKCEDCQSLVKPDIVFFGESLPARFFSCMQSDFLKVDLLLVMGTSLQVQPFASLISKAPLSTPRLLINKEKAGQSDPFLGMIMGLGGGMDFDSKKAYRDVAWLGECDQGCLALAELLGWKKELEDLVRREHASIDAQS

[1] = target: Sirt3 (as used in the activity assays) (human); assay: cell-based or functional assay
human mini-Sirt1 (aa …) = target: B2; assay: cell-based or functional assay
human full-length Sirt1 = target: T2, human full-length Sirt1 (human, UniProt Q96EB6 1-747); assay: cell-based or functional assay
T2 sequence (looked up): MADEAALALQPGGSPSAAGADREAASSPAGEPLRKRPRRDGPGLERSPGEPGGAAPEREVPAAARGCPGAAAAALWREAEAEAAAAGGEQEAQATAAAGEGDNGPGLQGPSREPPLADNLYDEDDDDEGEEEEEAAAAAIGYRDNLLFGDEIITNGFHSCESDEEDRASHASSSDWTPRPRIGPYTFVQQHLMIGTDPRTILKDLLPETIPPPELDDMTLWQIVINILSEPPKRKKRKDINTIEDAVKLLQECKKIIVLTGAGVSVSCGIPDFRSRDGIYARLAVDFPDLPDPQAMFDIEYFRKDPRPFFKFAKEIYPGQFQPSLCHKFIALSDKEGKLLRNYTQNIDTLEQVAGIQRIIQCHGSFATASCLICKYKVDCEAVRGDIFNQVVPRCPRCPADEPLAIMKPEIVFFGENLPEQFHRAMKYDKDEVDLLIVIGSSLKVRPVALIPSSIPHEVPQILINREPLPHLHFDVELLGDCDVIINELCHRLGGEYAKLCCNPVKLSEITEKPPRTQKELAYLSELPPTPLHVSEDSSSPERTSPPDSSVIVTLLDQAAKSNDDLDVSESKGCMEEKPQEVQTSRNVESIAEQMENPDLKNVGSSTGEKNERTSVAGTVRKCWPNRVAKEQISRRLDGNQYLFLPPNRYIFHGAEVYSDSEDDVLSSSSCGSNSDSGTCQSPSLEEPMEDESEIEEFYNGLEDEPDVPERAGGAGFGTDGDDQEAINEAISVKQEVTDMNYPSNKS

[2] = target: B1; assay: NMR titration; unlabeled mini-Sirt1 (stock 260 µM) added stepwise to 100 µM 15N-labeled Tat-Cys^−; 150 mM sodium chloride, 10 mM potassium phosphate pH 6.4; 2D-(1H,15N)-HSQC at 298 K; conditions: both partners purified
human Sirt3-(118-399) = target: T3, human Sirt3-(118-399) (human, UniProt Q9NTG7 118-399); assay: crystal structure; 10 mg/mL Sirt3-(118-399) incubated with 2 mM peptide for 60 min at 20 °C; sitting-drop vapor diffusion at 20 °C (MES pH 6.0/PEG 200/PEG 3000 for ac-Tat-46-54; CHES pH 9.0/PEG 8000 for Tat-37-59); conditions: both partners purified
T3 construct: human Sirt3, residues 118-399; The construct used for crystallization; also called hSirt3-(118-399); source: E. coli CodonPlus(DE3), pVFT3S, purified (nickel NTA, protease digestion, second nickel NTA, SEC)
T3 sequence (looked up): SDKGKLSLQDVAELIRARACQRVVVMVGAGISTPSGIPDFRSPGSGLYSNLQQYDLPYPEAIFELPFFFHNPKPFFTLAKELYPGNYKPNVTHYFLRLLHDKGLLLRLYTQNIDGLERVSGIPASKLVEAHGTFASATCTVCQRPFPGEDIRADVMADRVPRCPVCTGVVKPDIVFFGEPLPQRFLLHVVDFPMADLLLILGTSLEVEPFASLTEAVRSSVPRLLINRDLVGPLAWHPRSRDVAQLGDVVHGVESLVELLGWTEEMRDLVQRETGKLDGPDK

With B1 the “inhibition of Sirt2 in the FdL assay at substrate Km; IC50” value (Sirt2-(43-356)) was 11 µM, the “inhibition of Sirt3 in the FdL assay at substrate Km; IC50” value [1] was 15.9 µM and the “inhibition of mini-Sirt1 deacetylation of p53 substrate, coupled-enzyme assay at substrate Km; IC50” value (human mini-Sirt1 (aa …)) was 30 to 40 µM. The “inhibition of mini-Sirt1 in the FdL assay at substrate Km; IC50” value (human mini-Sirt1 (aa …)) was 2.3 µM, the “inhibition of fl-Sirt1 deacetylation of FdL substrate, FdL assay at substrate Km; IC50” value (human full-length Sirt1) was 3.6 µM and the “inhibition of fl-Sirt1 deacetylation of a p53-derived peptide, coupled enzymatic assay, 100 µM substrate; IC50” value (human full-length Sirt1) was about 20 µM.

B2: binds [2].

B3: binds (human Sirt3-(118-399)).
